± gives the standard deviation of the averaged measurements.
Test system: ATP
Test: switch fluorescence ratio, 500 uM ATP over buffer (Cy3 cluster intensity, sum of 5 cycles each) (fold (ratio)); higher = stronger signal-on switching upon ATP binding; sequences stand for … in TCGTCGGCAGCGTCAGATGTGTATAAGAGACAGTTTTTTTTTTTTTTTTTTTTTTTTT…TC
Settings: aptamer strand: ATP DNA aptamer (quencher-CACCTGGGGGAGTATTGCGGAGGAAGG + anchor), 100 nM annealed; ATP concentration: 500 uM
Method in brief: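 Between each of five buffer/ATP cycles, the flow-cell was stripped with NaOH and re-annealed. Each cycle imaged Cy3-labelled switching-strand clusters, annealed to 100 nM quencher-labelled ATP aptamer on a modified Illumina MiSeq flow-cell, first in selection buffer and then after 15 min with 500 uM ATP at 22 °C. The fluorescence ratio is summed target-cycle over summed buffer-cycle Cy3 intensity per cluster, averaged per switch-domain sequence, with clusters outside 100-1000 RFU excluded.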
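Note: ATP exposure 15 min at 22 °C before imaging.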

Sequence	switch fluorescence ratio
GGTAGTGCTG	0.982 ± 0.042
GGTAGTTGGT	1.01 ± 0.011
GGTAGTTTTC	0.9916 ± 0.0039
GGTATAATAC	1.23 ± 0.041
GGTATAATTG	1.021 ± 0.0062
GGTATATAAA	1.003 ± 0.0029
GGTATATGTT	1.01 ± 0.015
GGTATATTCC	1.02 ± 0.024
GGTATCGAGG	1.01 ± 0.015
GGTATGCTCT	0.998 ± 0.065
GGTATGGTCT	1.02 ± 0.022
GGTATGTTGG	0.996 ± 0.011
GGTATTAGGA	0.9669 ± 0.0076
GGTATTCCGT	1.03 ± 0.045
GGTATTCGAA	1.054 ± 0.0022
GGTATTGAGT	0.992 ± 0.03
GGTATTGCGT	0.977 ± 0.042
GGTATTGGGA	0.989 ± 0.018
GGTATTGGTT	0.987 ± 0.048
GGTATTTGGT	0.988 ± 0.03
GGTATTTTGG	0.953 ± 0.035
GGTCAAGGGG	0.9826 ± 0.0088

Sequence	switch fluorescence ratio
GGTCAGGTGA	0.972 ± 0.073
GGTCATGGCG	1.02 ± 0.098
GGTCATTGTT	0.9635 ± 0.0031
GGTCCGGAGC	1.1577 ± 0.00066
GGTCCGTCGA	1.02 ± 0.064
GGTCCTCGTG	0.998 ± 0.027
GGTCCTGGGC	1.01 ± 0.013
GGTCGCAGTC	0.9649 ± 0.0016
GGTCGCCGGG	0.976 ± 0.081
GGTCGGGGAG	0.9987 ± 0.0028
GGTCGGGGGA	0.99 ± 0.061
GGTCGGGTAC	0.9676 ± 0.0094
GGTCGGTATT	1.08 ± 0.12
GGTCGGTGCG	0.9914 ± 0.0098
GGTCGGTTGG	0.97591 ± 0.00041
GGTCGTGCGC	0.996 ± 0.029
GGTCTAGAGT	1 ± 0.014
GGTCTAGGCA	0.987 ± 0.02
GGTCTGCAGC	1.003 ± 0.0062
GGTCTGGGGG	0.955 ± 0.012
GGTCTGGGGT	1.09 ± 0.21
GGTCTTAACT	0.967 ± 0.028

Sequence	switch fluorescence ratio
GGTCTTCTTT	0.994 ± 0.029
GGTCTTTTTT	1.02 ± 0.05
GGTGAAGACC	0.9598 ± 0.0086
GGTGACAAAT	0.9777 ± 0.003
GGTGACCTTG	0.9891 ± 0.0037
GGTGACGCAC	1.62 ± 0.057
GGTGAGGGTA	0.991 ± 0.012
GGTGAGTCGG	0.9925 ± 0.0029
GGTGAGTTAC	0.98 ± 0.013
GGTGATAAAT	0.991 ± 0.025
GGTGATACGG	1.012 ± 0.0022
GGTGATAGTT	0.994 ± 0.017
GGTGCAAGCT	1.019 ± 0.0023
GGTGCAAGTT	1.02 ± 0.042
GGTGCAGGTA	0.984 ± 0.025
GGTGCCGTGC	0.995 ± 0.034
GGTGCGATTG	1.07 ± 0.052
GGTGCGTAGG	1 ± 0.012
GGTGCGTTGG	1.03 ± 0.042
GGTGCTGGAG	0.98 ± 0.011
GGTGGACTTG	1 ± 0.041
GGTGGAGGGA	0.987 ± 0.031

Sequence	switch fluorescence ratio
GGTGGAGGGG	1 ± 0.0022
GGTGGATACA	1.005 ± 0.0036
GGTGGGAATG	0.99 ± 0.023
GGTGGGACAA	0.966 ± 0.042
GGTGGGAGAC	1.01 ± 0.03
GGTGGGAGCA	1.04 ± 0.034
GGTGGGAGGG	1.008 ± 0.0073
GGTGGGATTT	0.9506 ± 0.0055
GGTGGGGAAA	1.0255 ± 0.00086
GGTGGGGAGA	1.017 ± 0.0086
GGTGGGGAGT	1.01 ± 0.021
GGTGGGGCAG	0.9643 ± 0.0041
GGTGGGGCGA	1.01 ± 0.041
GGTGGGGGGG	1 ± 0.036
GGTGGGGGGT	0.989 ± 0.029
GGTGGGGTTA	0.984 ± 0.038
GGTGGGTTGT	1.03 ± 0.076
GGTGGTAGGA	0.98 ± 0.041
GGTGGTAGTT	1.012 ± 0.003
